Consider 3 molecules from patent publication US6623738 (University of California, dated 2003).

Experiment [1] has as its target T1, neuropilin-1 transiently expressed in COS-7 cells (Rattus norvegicus (Rat), UniProt Q9QWJ9 22-922).
T1 construct: also called npn-1; SR1
Description: equilibrium binding of AP fusion to transfected COS cells, Hill fit. How it is done: (§1) FIGS. 5A–5C. Equilibrium binding of semaphorin-AP fusion proteins to neuropilin-expressing cells. Transfected or control COS cells were incubated with concentrated media containing the indicated concentrations of semaphorin-AP fusion proteins. AP activity derived from bound fusion proteins was measured […] at 405 nm; specific binding was obtained after subtraction of background from control cells. Specific binding curves to cells expressing neuropilin-1 (closed circles) or […] are shown for Sema III-AP (A), Sema E-AP (B), and Sema IV-AP (C). Dissociation constants for interaction with neuropilin-2-expressing cells were 0.29 for Sema E-AP and 0.09 nM for Sema IV-AP.
(§2) We estimated the binding affinity of the AP fusions of Sema III, Sema E and Sema IV to cells expressing neuropilin-1 or neuropilin-2 in equilibrium binding experiments. For these experiments, we used the a5 isoform of neuropilin-2. […] Those for Sema IV binding to neuropilin-1 and neuropilin-2 were 30 nM and 5 nM, respectively. […] Similar Kd values were obtained using the b5 isoform of neuropilin-2 and the degree of binding of different semaphorins to cells all isoforms tested appeared similar.

In experiment [2] the target is T2, mouse neuropilin-2(a5), myc-tagged, expressed in COS-7 cells (mouse, UniProt O35375 21-931).
T2 construct: also called a5 isoform of neuropilin-2; SR2(a)5
T2 sequence: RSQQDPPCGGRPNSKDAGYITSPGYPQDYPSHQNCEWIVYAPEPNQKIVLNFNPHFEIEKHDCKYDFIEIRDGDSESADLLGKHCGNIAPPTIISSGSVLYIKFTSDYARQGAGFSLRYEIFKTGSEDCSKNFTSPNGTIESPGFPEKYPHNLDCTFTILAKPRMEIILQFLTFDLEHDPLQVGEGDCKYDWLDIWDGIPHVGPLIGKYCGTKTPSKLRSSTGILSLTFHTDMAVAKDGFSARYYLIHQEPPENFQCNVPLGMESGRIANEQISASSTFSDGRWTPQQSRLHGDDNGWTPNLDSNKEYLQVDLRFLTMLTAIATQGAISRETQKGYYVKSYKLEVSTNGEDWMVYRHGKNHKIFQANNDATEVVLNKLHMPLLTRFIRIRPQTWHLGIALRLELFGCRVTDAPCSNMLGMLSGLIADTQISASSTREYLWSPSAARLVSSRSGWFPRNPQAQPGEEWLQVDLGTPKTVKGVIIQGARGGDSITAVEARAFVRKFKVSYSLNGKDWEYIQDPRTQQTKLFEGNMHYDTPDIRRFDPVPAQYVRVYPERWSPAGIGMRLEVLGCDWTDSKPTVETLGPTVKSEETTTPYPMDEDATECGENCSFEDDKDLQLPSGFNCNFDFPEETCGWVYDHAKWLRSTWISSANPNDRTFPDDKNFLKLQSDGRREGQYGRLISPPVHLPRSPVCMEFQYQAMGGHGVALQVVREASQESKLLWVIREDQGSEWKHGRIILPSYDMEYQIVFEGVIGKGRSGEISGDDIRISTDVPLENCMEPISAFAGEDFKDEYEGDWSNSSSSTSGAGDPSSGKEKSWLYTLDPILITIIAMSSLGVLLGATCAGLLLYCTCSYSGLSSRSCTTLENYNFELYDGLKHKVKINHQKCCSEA
As to the kind of experiment: equilibrium binding of AP fusion to transfected COS cells (a5 isoform), Hill fit. How it is done: as §1, §2

In experiment [3] the target is T2, mouse neuropilin-2(a5), myc-tagged, …. Description: equilibrium binding of AP fusion to neuropilin-2-expressing COS cells (figure legend). How it is done: as §1, §2
Experiment [4] shares this target. As to the kind of experiment: AP fusion binding to transfected COS cells.
Experiment [5] addresses T3, mouse neuropilin-2(a0), myc-tagged, expressed in COS-7 cells (mouse, UniProt O35375 21-931).
T3 construct: also called SR2(a)0; m-npn-2
T3 sequence: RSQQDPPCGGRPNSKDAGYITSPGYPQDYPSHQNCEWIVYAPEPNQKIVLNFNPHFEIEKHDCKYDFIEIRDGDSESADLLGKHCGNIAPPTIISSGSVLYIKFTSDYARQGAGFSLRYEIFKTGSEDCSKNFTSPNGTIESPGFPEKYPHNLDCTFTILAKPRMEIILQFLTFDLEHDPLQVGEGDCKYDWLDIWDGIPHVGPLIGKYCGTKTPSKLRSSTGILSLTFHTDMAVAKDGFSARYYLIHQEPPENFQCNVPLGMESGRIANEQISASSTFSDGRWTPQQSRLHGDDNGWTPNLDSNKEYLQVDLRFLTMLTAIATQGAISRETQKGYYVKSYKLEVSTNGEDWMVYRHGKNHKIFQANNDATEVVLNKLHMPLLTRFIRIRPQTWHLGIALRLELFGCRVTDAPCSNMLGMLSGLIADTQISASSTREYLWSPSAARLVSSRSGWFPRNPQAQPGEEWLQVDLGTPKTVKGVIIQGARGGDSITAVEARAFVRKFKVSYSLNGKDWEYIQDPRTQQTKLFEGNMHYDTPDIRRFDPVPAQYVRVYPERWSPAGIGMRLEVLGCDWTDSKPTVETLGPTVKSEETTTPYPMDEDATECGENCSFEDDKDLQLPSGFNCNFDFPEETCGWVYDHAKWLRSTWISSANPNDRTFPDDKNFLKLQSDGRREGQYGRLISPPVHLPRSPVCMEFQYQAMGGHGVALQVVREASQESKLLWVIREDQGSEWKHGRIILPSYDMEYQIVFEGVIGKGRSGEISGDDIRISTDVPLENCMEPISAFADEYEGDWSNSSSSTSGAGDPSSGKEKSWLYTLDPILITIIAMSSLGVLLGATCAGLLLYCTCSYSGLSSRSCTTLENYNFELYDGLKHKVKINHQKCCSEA
Description: AP fusion binding to transfected COS cells.

Experiment [6] concerns the target T4, mouse neuropilin-2(a22), myc-tagged, expressed in COS-7 cells (mouse, UniProt O35375 21-931).
T4 construct: also called SR2(a)22
T4 sequence: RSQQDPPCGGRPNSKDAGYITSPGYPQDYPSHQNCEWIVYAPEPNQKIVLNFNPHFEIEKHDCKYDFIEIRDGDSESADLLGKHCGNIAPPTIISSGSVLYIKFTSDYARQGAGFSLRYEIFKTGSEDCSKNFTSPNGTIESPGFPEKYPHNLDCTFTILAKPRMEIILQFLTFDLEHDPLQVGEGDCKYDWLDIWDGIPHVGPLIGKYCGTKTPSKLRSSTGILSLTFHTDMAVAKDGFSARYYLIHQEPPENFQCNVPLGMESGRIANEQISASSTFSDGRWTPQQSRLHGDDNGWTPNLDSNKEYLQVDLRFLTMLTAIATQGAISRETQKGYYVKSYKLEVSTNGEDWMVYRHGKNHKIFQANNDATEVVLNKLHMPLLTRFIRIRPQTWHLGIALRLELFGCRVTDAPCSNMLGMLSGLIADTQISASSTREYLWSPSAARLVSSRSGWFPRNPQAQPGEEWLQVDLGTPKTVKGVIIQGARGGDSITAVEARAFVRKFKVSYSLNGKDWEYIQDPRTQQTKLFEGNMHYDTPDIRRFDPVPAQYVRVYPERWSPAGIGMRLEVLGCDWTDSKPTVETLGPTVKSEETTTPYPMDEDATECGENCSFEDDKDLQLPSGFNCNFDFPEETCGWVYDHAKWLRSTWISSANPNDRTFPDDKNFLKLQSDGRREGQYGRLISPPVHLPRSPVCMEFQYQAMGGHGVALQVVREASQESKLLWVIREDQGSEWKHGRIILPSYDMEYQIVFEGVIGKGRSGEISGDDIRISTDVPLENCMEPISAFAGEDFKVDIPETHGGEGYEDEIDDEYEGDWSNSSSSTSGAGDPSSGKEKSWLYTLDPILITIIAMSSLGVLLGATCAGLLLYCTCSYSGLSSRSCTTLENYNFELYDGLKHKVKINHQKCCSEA
Description: AP fusion binding to transfected COS cells.

B1: Sema E-AP fusion protein (mouse Sema E fused to alkaline phosphatase) (ligand, UniProt Q62181 21-751, looked up)
chain: GSSQPQARVYLTFDELRETKTSEYFSLSHQQLDYRILLMDEDQDRIYVGSKDHILSLNINNISQEPLSVFWPASTIKVEECKMAGKDPTHGCGNFVRVIQTFNRTHLYVCGSGAFSPVCTYLNRGRRSEDQVFMIDSKCESGKGRCSFNPNVNTVSVMINEELFSGMYIDFMGTDAAIFRSLTKRNAVRTDQHNSKWLSEPMFVDAHVIPDGTDPNDAKVYFFFKERLTDNNRSTKQIHSMIARICPNDTGGQRSLVNKWTTFLKARLVCSVTDEDGPETHFDELEDVFLLETDNPRTTLVYGIFTTSSSVFKGSAVCVYHLSDIQTVFNGPFAHKEGPNHQLISYQGRIPYPRPGTCPGGAFTPNMRTTKDFPDDVVTFIRNHPLMYNSIYPIHRRPLIVRIGTDYKYTKIAVDRVNAADGRYHVLFLGTDRGTVQKVVVLPTNSSASGELILEELEVFKNHVPITTMKISSKKQQLYVSSNEGVSQVSLHRCHIYGTACADCCLARDPYCAWDGHSCSRFYPTGKRRSRRQDVRHGNPLTQCRGFNLKAYRNAAEIVQYGVRNNSTFLECAPKSPQASIKWLLQKDKDRRKEVKLNERIIATSQGLLIRSVQDSDQGLYHCIATENSFKQTIAKINFKVLDSEMVAVVTDKWSPWTWAGSVRALPFHPKDILGAFSHSEMQLINQYCKDTRQQQQLGEEPQKMRGDYGKLKALINSRKSRNRRNQLPES
notes: written as in the name; Partially purified conditioned medium; not shown: secreted alkaline phosphatase of vector APtag-4
In general, Kd refers to the concentration at which binding is half-saturated. High values mean weaker binding, low ones tighter binding. B1: the dissociation constant (Kd) was determined as 5 nM in experiment [1], 18 nM in experiment [2] and 0.29 nM in experiment [3].

B2: Sema IV-AP fusion protein (human Sema IV fused to alkaline phosphatase) (ligand, UniProt Q13275 19-785, looked up)
chain: SFPTQDHLPATPRVRLSFKELKATGTAHFFNFLLNTTDYRILLKDEDHDRMYVGSKDYVLSLDLHDINREPLIIHWAASPQRIEECVLSGKDVNGECGNFVRLIQPWNRTHLYVCGTGAYNPMCTYVNRGRRAQATPWTQTQAVRGRGSRATDGALRPMPTAPRQDYIFYLEPERLESGKGKCPYDPKLDTASALINEELYAGVYIDFMGTDAAIFRTLGKQTAMRTDQYNSRWLNDPSFIHAELIPDSAERNDDKLYFFFRERSAEAPQSPAVYARIGRICLNDDGGHCCLVNKWSTFLKARLVCSVPGEDGIETHFDELQDVFVQQTQDVRNPVIYAVFTSSGSVFRGSAVCVYSMADIRMVFNGPFAHKEGPNYQWMPFSGKMPYPRPGTCPGGTFTPSMKSTKDYPDEVINFMRSHPLMYQAVYPLQRRPLVVRTGAPYRLTTIAVDQVDAADGRYEVLFLGTDRGTVQKVIVLPKDDQELEELMLEEVEVFKDPAPVKTMTISSKRQQLYVASAVGVTHLSLHRCQAYGAACADCCLARDPYCAWDGQACSRYTASSKRRSRRQDVRHGNPIRQCRGFNSNANKNAVESVQYGVAGSAAFLECQPRSPQATVKWLFQRDPGDRRREIRAEDRFLRTEQGLLLRALQLSDRGLYSCTATENNFKHVVTRVQLHVLGRDAVHAALFPPLSMSAPPPPGAGPPTPPYQELAQLLAQPEVGLIHQYCQGYWRHVPPSPREAPGAPRSPEPQDQKKPRNRRHHPPDT
notes: written as in the name; Partially purified conditioned medium; also called Sema IV/Sema 3F; not shown: secreted alkaline phosphatase in pSecTag-A
On to B2, for which the dissociation constant Kd is 30 nM in experiment [1], 5 nM in experiment [2] and 0.09 nM in experiment [3].

B3: AP fusion with Drosophila D-Sema II (ligand, UniProt Q24323 26-724, looked up)
chain: DYENTWNFYYERPCCTGNDQGNNNYGKHGADHVREFNCGKLYYRTFHMNEDRDTLYVGAMDRVFRVNLQNISSSNCNRDVINLEPTRDDVVSCVSKGKSQIFDCKNHVRVIQSMDQGDRLYVCGTNAHNPKDYVIYANLTHLPRSEYVIGVGLGIAKCPYDPLDNSTAIYVENGNPGGLPGLYSGTNAEFTKADTVIFRTDLYNTSAKRLEYKFKRTLKYDSKWLDKPNFVGSFDIGEYVYFFFRETAVEYINCGKAVYSRIARVCKKDVGGKNLLAHNWATYLKARLNCSISGEFPFYFNEIQSVYQLPSDKSRFFATFTTSTNGLIGSAVCSFHINEIQAAFNGKFKEQSSSNSAWLPVLNSRVPEPRPGTCVNDTSNLPDTVLNFIRSHPLMDKAVNHEHNNPVYYKRDLVFTKLVVDKIRIDILNQEYIVYYVGTNLGRIYKIVQYYRNGESLSKLLDIFEVAPNEAIQVMEISQTRKSLYIGTDHRIKQIDLAMCNRRYDNCFRCVRDPYCGWDKEANTCRPYELDLLQDVANETSDICDSSVLKKKIVVTYGQSVHLGCFVKIPEVLKNEQVTWYHHSKDKGRYEIRYSPTKYIETTERGLVVVSVNEADGGRYDCHLGGSLLCSYNITVDAHRCTPPNKSNDYQKIYSDWCHEFEKYKTAMKSWEKKQAQCSTRQNFSSNQHPNEIFRKPNV
notes: also called Drosophila Sema II; not shown: alkaline phosphatase (AP) reporter
Turning to B3, the binding result in experiment [4], in experiment [5] and in experiment [6] was “no binding” throughout.
